Experimental data taken from patent US20220025023A1 (AC IMMUNE, published 2022).
Where no end group is shown, it is not given here.

T1: TDP-211 peptide (human)
T1 construct: 8-mer of human TDP-43; same ELISA method as for the biotinylated 15-mers
T1 peptide: FSQYGDVM

T2: TDP-217 peptide (human)
T2 construct: 8-mer of human TDP-43; same ELISA method as for the biotinylated 15-mers
T2 peptide: VMDVFIPK

T3: TDP-212 peptide (human)
T3 construct: 8-mer of human TDP-43; same ELISA method as for the biotinylated 15-mers
T3 peptide: SQYGDVMD

T4: TDP-222 peptide (human)
T4 construct: 8-mer of human TDP-43; same ELISA method as for the biotinylated 15-mers
T4 peptide: IPKPFRAF

T5: TDP-221 peptide (human)
T5 construct: 8-mer of human TDP-43; same ELISA method as for the biotinylated 15-mers
T5 peptide: FIPKPFRA

T6: TDP-218 peptide (human)
T6 construct: 8-mer of human TDP-43; same ELISA method as for the biotinylated 15-mers
T6 peptide: MDVFIPKP

T7: TDP-216 peptide (human)
T7 construct: 8-mer of human TDP-43; same ELISA method as for the biotinylated 15-mers
T7 peptide: DVMDVFIP

T8: TDP-223 peptide (human)
T8 construct: 8-mer of human TDP-43; same ELISA method as for the biotinylated 15-mers
T8 peptide: PKPFRAFA

T9: TDP-219 peptide (human)
T9 construct: 8-mer of human TDP-43; same ELISA method as for the biotinylated 15-mers
T9 peptide: DVFIPKPF

T10: TDP-214 peptide (human)
T10 construct: 8-mer of human TDP-43; same ELISA method as for the biotinylated 15-mers
T10 peptide: YGDVMDVF

T11: TDP-220 peptide (human)
T11 construct: 8-mer of human TDP-43; same ELISA method as for the biotinylated 15-mers
T11 peptide: VFIPKPFR

T12: TDP-224 peptide (human)
T12 construct: 8-mer of human TDP-43; same ELISA method as for the biotinylated 15-mers
T12 peptide: KPFRAFAF

T13: TDP-213 peptide (human)
T13 construct: 8-mer of human TDP-43; same ELISA method as for the biotinylated 15-mers
T13 peptide: QYGDVMDV

T14: TDP-210 peptide (human)
T14 construct: 8-mer of human TDP-43; same ELISA method as for the biotinylated 15-mers
T14 peptide: FFSQYGDV

T15: TP-23 (also: biotinylated, site not given here)
T15 construct: also called TP-23 peptide
T15 peptide: TEDMTEDELREFFSQ

T16: TP-30 (also: biotinylated, site not given here)
T16 construct: also called TP-30 peptide
T16 peptide: PKHNSNRQLERSGRF

T17: TP-28 (also: biotinylated, site not given here)
T17 construct: also called TP-28 peptide
T17 peptide: CGEDLIIKGISVHIS

T18: TP-29 (also: biotinylated, site not given here)
T18 construct: also called TP-29 peptide
T18 peptide: ISVHISNAEPKHNSN

T19: TP-27 (also: biotinylated, site not given here)
T19 construct: also called TP-27 peptide
T19 peptide: ADDQIAQSLCGEDLI

T20: TP-25 peptide (human, also: biotinylated, site not given here)
T20 construct: 15-mer of human TDP-43 from the library spanning aa 199-285; captured on streptavidin plates
T20 peptide: VMDVFIPKPFRAFAF

T21: TP-24 peptide (human, also: biotinylated, site not given here)
T21 construct: 15-mer of human TDP-43 from the library spanning aa 199-285; captured on streptavidin plates
T21 peptide: REFFSQYGDVMDVFI


Key:
TDP-211 peptide = target: T1, TDP-211 peptide; assay: indirect ELISA, 8-mer peptide library
Method: (§1) Serum-free supernatants were harvested from stable hybridomas. The supernatants containing antibodies of interest were then screened by an indirect ELISA assay to determine epitopes. Epitopes were mapped using a library of TDP-43 15-mer peptides. Briefly, 96-well streptavidin-coated 96-well ELISA plates were incubated with 5 μg/mL of biotinylated 15-mer peptides spanning the amino acids (aa) 199-285 of human TDP-43 with 9 aa offset and 6 aa overlap. Plates were washed thoroughly with 0.05% Tween-20/PBS and then blocked with 1% bovine serum albumin (BSA) in 0.05% Tween-20/PBS for 1 hour at 37° C. The antibody contained in the hybridoma supernatant was then added at the indicated dilutions, and incubated for 2 hours at 37° C. after which the plates were washed as described previously. An AP-conjugated anti-mouse IgG secondary antibody (Jackson ImmunoResearch Laboratories, United Kingdom) was added at 1/1000 dilution in 0.05% Tween-20/PBS for 1 hour at 37° C. After the final wash, plates were incubated with pNPP (Sigma-Aldrich, Switzerland) an AP substrate solution, and read at 405 nm using an ELISA plate reader (Tecan).
(§2) Furthermore, antibodies were tested using an indirect ELISA on a peptide library of 8-mer peptides with 7 aa overlap covering the sequence of human TDP-43 from aa 210 to aa 231, using the same ELISA method as describe previously in this section.

TDP-217 peptide = target: T2, TDP-217 peptide; assay: indirect ELISA, 8-mer peptide library
Method: as §1, §2

TDP-212 peptide = target: T3, TDP-212 peptide; assay: indirect ELISA, 8-mer peptide library
Method: as §1, §2

TDP-222 peptide = target: T4, TDP-222 peptide; assay: indirect ELISA, 8-mer peptide library
Method: as §1, §2

TDP-221 peptide = target: T5, TDP-221 peptide; assay: indirect ELISA, 8-mer peptide library
Method: as §1, §2

TDP-218 peptide = target: T6, TDP-218 peptide; assay: indirect ELISA, 8-mer peptide library
Method: as §1, §2

TDP-216 peptide = target: T7, TDP-216 peptide; assay: indirect ELISA, 8-mer peptide library
Method: as §1, §2

TDP-223 peptide = target: T8, TDP-223 peptide; assay: indirect ELISA, 8-mer peptide library
Method: as §1, §2

TDP-219 peptide = target: T9, TDP-219 peptide; assay: indirect ELISA, 8-mer peptide library
Method: as §1, §2

TDP-214 peptide = target: T10, TDP-214 peptide; assay: indirect ELISA, 8-mer peptide library
Method: as §1, §2

TDP-220 peptide = target: T11, TDP-220 peptide; assay: indirect ELISA, 8-mer peptide library
Method: as §1, §2

TDP-224 peptide = target: T12, TDP-224 peptide; assay: indirect ELISA, 8-mer peptide library
Method: as §1, §2

TDP-213 peptide = target: T13, TDP-213 peptide; assay: indirect ELISA, 8-mer peptide library
Method: as §1, §2

TDP-210 peptide = target: T14, TDP-210 peptide; assay: indirect ELISA, 8-mer peptide library
Method: as §1, §2

TP-23 = target: T15, TP-23; assay: indirect ELISA, biotinylated 15-mer on streptavidin plate, hybridoma supernatant
Method: as §1

TP-30 = target: T16, TP-30; assay: as above
Method: as §1

TP-28 = target: T17, TP-28; assay: as above
Method: as §1

TP-29 = target: T18, TP-29; assay: as above
Method: as §1

TP-27 = target: T19, TP-27; assay: as above
Method: as §1

TP-25 peptide = target: T20, TP-25 peptide; assay: indirect ELISA, biotinylated 15-mer peptide on streptavidin plate, hybridoma supernatant
Method: as §1

TP-24 peptide = target: T21, TP-24 peptide; assay: as above
Method: as §1

[1] = target: T22, recombinant human full-length TDP-43 (human, UniProt Q13148 1-414); assay: SPR affinity (Biacore 8K), antibody captured on anti-mouse IgG, TDP-43 monomer as analyte, single cycle kinetics, 1:1 model
T22 construct: Recombinant full-length protein; also called FL TDP-43; recFL TDP-43
Method: Binding affinity to FL TDP-43 was evaluated by determining the dissociation constant (KD) using surface plasmon resonance (SPR; Biacore 8K, GE Healthcare Life Sciences). Anti-mouse IgG was immobilized on a CM5 Series S sensor chip (GE Healthcare Life Sciences) by amine coupling. Immobilization of andi-IgG was done at a concentration of 30 μg/ml in 10 mM sodium acetate (pH 5.5) with a flow rate of 10 μl/min for 500 s. The purified antibodies being tested, and the control antibody (2E2-D3), were injected at a concentration of 1 μg/ml at a flow rate of 10 μl/min for 500 s in 10 mM Na-acetate (pH 5.5). To evaluate KDs, recombinant human FL TDP-43 monomer analyte was injected at […] starting from 400 nM and diluting down to 1.6 nM using single cycle kinetics. The protein analyte was injected at a flow rate of 20 μl/min for 600 s contact time and a 1200 s dissociation phase, without intermediate regeneration steps. Result obtained from kinetics was evaluated using a 1:1 binding model analysis.

T22 sequence (Q13148 whole entry): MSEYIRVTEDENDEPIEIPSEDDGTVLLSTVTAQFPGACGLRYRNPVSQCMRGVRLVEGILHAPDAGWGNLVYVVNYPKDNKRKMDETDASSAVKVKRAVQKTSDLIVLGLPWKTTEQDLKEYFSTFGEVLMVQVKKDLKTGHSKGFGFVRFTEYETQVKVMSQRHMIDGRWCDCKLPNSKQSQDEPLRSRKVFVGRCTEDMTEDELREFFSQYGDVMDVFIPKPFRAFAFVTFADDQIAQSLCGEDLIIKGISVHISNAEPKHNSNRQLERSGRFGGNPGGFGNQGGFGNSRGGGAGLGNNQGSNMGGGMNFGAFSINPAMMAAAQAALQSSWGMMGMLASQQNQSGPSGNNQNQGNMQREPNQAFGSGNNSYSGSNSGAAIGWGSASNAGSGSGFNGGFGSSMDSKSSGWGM

Binder	binding result (TDP-211 peptide)	binding result (TDP-217 peptide)	binding result (TDP-212 peptide)	binding result (TDP-222 peptide)	binding result (TDP-221 peptide)	binding result (TDP-218 peptide)	binding result (TDP-223 peptide)	binding result (TDP-219 peptide)	binding result (TDP-214 peptide)	binding result (TDP-220 peptide)	binding result (TDP-224 peptide)	binding result (TDP-213 peptide)	binding result (TDP-210 peptide)	binding result (TP-23)	binding result (TP-30)	binding result (TP-28)	binding result (TP-29)	binding result (TP-27)	OD (TP-25 peptide)	OD (TP-24 peptide)	further results
ACI-7062-416A11-Ab1 (antibody, IgG2a, V domains shown, also called 416A11B3; clone 18) VH: QVTLKESGPGILQSSQTLSLTCSFSGFSLSTYGIGVGWIRQPSGKGLEWLAHIWWNDNKYYNTALKSRLTISKDTSNNQVFLKIASVDTADAATYYCARVYGNLYYFGYWGQGTTLTVSS VL: DVLMTQTPLSLPVSLGDRASISCRSSQSIVHSSGNTYLEWYLQKPGQSPKLLIYKVSNRFSGVPDRFSGSGSGTDFTLKISRVEAEDLGVYYCFQGSRVPTFGAGTKLELKR	no binding	no binding	no binding	no binding	no binding	no binding	no binding	no binding	no binding	no binding	no binding	no binding	no binding	no binding	no binding	no binding	no binding	no binding	0.9 O.D. (405 nm)	2.9 O.D. (405 nm)	binding result (TDP-216 peptide): no binding; Kd [1]: 307 nM
ACI-7062-410H3-Ab1 (antibody, IgG1, V domains shown, also called 410H3B9; clone 7) VH: DVQLVESGGGLVQPGGSRRLSCAASGFTFSSFGMHWVRQAPEKGLEWVAYIRSGSDIIYYADSVKGRFTISRDNPENTLFLQMTSLRSEDTAMYYCARSGTTVPFDYWGQGTSLTVSS VL: DIVMTQSPSSLAMSVGQKVTMSCKSSQSLLNSGNQKNYLAWYQQKPGQSPELLLYFASTRASGVPDRFIGSGSGTDFTLTISSVQAEDLADYFCQQHYSIPLTFGAGTKLELKR	no binding	no binding	no binding	no binding	no binding	no binding	no binding	no binding	no binding	no binding	no binding	no binding	no binding	no binding	no binding	no binding	no binding	no binding	0.8 O.D. (405 nm)	3.8 O.D. (405 nm)	Kd [1]: 242 nM
ACI-7062-412A7-Ab1 (antibody, IgG2b, V domains shown, also called 412A7B7; clone 9) VH: DVQLVESGGGLVQPGGSRRLSCAASGFTFSSFGMHWVRQAPEKGLEWVAYIRSGSDIIYYADSVKGRFTISRDNPENTLFLQMTSLRSEDTAMYYCARSGTTVPFDYWGQGTSLTVSS VL: DIVMTQSPSSLAMSVGQKVTMSCKSSQSLLNSGNQKNYLAWYQQKPGQSPELLLYFASTRASGVPDRFIGSGSGTDFTLTISSVQAEDLADYFCQQHYSIPLTFGAGTKLELKR	no binding	no binding	no binding	no binding	no binding	no binding	no binding	no binding	no binding	no binding	no binding	no binding	no binding	no binding	no binding	no binding	no binding	no binding	1.4 O.D. (405 nm)	4 O.D. (405 nm)	Kd [1]: 66.1 nM
